Results: paper PMC4938175, “Conserved Sequence Preferences Contribute to Substrate Recognition by the Proteasome*^([image sbox.jpg])” (The Journal of Biological Chemistry, 2016)

B1: DHFR-GRR (other)
chain: MISLIAALAVDRVIGMENAMPWNLPADLAWFKRNTLNKPVIMGRHTWESIGRPLPGRKNIILSSQPGTDDRVTWVKSVDEAIAACGDVPEIMVIGGGRVYEQFLPKAQKLYLTHIDAEVEGDTHFPDYEPDDWESVFSEFHDADAQNSHSYCFEILERRPRDSFGGGSGAGAGGGGMFGSGGGG
B2: DHFR-35 (other)
chain: MISLIAALAVDRVIGMENAMPWNLPADLAWFKRNTLNKPVIMGRHTWESIGRPLPGRKNIILSSQPGTDDRVTWVKSVDEAIAACGDVPEIMVIGGGRVYEQFLPKAQKLYLTHIDAEVEGDTHFPDYEPDDWESVFSEFHDADAQNSHSYCFEILERRPRLRYQPLLRISQNCEAAILRASQTRLNTIHHHHHH
B3: DHFR-eRR (other)
chain: MISLIAALAVDRVIGMENAMPWNLPADLAWFKRNTLNKPVIMGRHTWESIGRPLPGRKNIILSSQPGTDDRVTWVKSVDEAIAACGDVPEIMVIGGGRVYEQFLPKAQKLYLTHIDAEVEGDTHFPDYEPDDWESVFSEFHDADAQNSHSYCFEILERRPRGGGGAWLLPVSLVRRRTTLAPNTQTASPRALADS

What follows are binders tested against purified S. cerevisiae proteasome (S. cerevisiae) (assay: competitive inhibition of proteasomal degradation of a fluorescent substrate; apparent Ki; DHFR-tail competitor varied, UbL-GFP-95 substrate, 40 nM purified yeast proteasome; loss of GFP fluorescence in 384-well plates; 30 °C (methods; the legend of Figure 7 says room temperature); 50 mM Tris, 5 mM MgCl2, 2.5% glycerol, 1 mM ATP, 4 mM DTT, 0.2 mg/ml BSA, 10 mM creatine phosphate, 0.1 mg/ml creatine kinase, pH 7.5; …). Settings: both partners purified.

Binder | Ki
B1 | 130 ± 20 µM
B2 | 36 ± 6 µM
B3 | 36 ± 5 µM
